Assay results from the supplement of paper PMC10567573.

B1: ZC3H15 (parent)
chain: ENLFTGEDLDELEEELNTLDLEE

Variants of: B1
Assay: protein stability index of a GFP-peptide fusion (GPS, HEK-293T) (PSI 1-6); higher = more stable
Conditions: c terminus: native
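Also: lentivirally expressed fusions sorted by FACS into six bins by GFP to DsRed ratio, PSI derived from sequencing read proportions per bin multiplied by bin number.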

Row | Variant | protein stability index
1 | ENDFTGEDLDELEEELNTLDLEE [L3D] | 5.09
2 | ENPFTGEDLDELEEELNTLDLEE [L3P] | 4.65
3 | ENIFTGEDLDELEEELNTLDLEE [L3I] | 4.57
4 | ENGFTGEDLDELEEELNTLDLEE [L3G] | 4.81
5 | ENKFTGEDLDELEEELNTLDLEE [L3K] | 4.06
6 | ENHFTGEDLDELEEELNTLDLEE [L3H] | 4.39
7 | ENSFTGEDLDELEEELNTLDLEE [L3S] | 5.2
8 | ENTFTGEDLDELEEELNTLDLEE [L3T] | 4.71
9 | ENLMTGEDLDELEEELNTLDLEE [F4M] | 4.5
10 | ENLWTGEDLDELEEELNTLDLEE [F4W] | 4.5
11 | ENLPTGEDLDELEEELNTLDLEE [F4P] | 5.03
12 | ENLITGEDLDELEEELNTLDLEE [F4I] | 5.19
13 | ENLCTGEDLDELEEELNTLDLEE [F4C] | 5.49
14 | ENLSTGEDLDELEEELNTLDLEE [F4S] | 5.13
15 | ENLVTGEDLDELEEELNTLDLEE [F4V] | 3.57
16 | ENLNTGEDLDELEEELNTLDLEE [F4N] | 4.74
17 | ENLDTGEDLDELEEELNTLDLEE [F4D] | 5.08
18 | ENLHTGEDLDELEEELNTLDLEE [F4H] | 4.55
19 | ENLRTGEDLDELEEELNTLDLEE [F4R] | 4.67
20 | ENLLTGEDLDELEEELNTLDLEE [F4L] | 4.58
21 | ENLQTGEDLDELEEELNTLDLEE [F4Q] | 4.69
22 | ENLKTGEDLDELEEELNTLDLEE [F4K] | 3.66
23 | ENLGTGEDLDELEEELNTLDLEE [F4G] | 4.83
24 | ENLATGEDLDELEEELNTLDLEE [F4A] | 4.68

Row | Variant | protein stability index
25 | ENLYTGEDLDELEEELNTLDLEE [F4Y] | 4.6
26 | ENLETGEDLDELEEELNTLDLEE [F4E] | 4.31
27 | ENLFTSEDLDELEEELNTLDLEE [G6S] | 4.88
28 | ENLFTQEDLDELEEELNTLDLEE [G6Q] | 4.41
29 | ENLFTFEDLDELEEELNTLDLEE [G6F] | 4.3
30 | ENLFTYEDLDELEEELNTLDLEE [G6Y] | 4.58
31 | ENLFTTEDLDELEEELNTLDLEE [G6T] | 4.81
32 | ENLFTHEDLDELEEELNTLDLEE [G6H] | 4.37
33 | ENLFTIEDLDELEEELNTLDLEE [G6I] | 4.2
34 | ENLFTAEDLDELEEELNTLDLEE [G6A] | 4.82
35 | ENLFTNEDLDELEEELNTLDLEE [G6N] | 4.83
36 | ENLFTKEDLDELEEELNTLDLEE [G6K] | 4.79
37 | ENLFTMEDLDELEEELNTLDLEE [G6M] | 4.68
38 | ENLFTVEDLDELEEELNTLDLEE [G6V] | 4.28
39 | ENLFTDEDLDELEEELNTLDLEE [G6D] | 4.93
40 | ENLFTLEDLDELEEELNTLDLEE [G6L] | 4.85
41 | ENLFTREDLDELEEELNTLDLEE [G6R] | 4.51
42 | EMLFTGEDLDELEEELNTLDLEE [N2M] | 4.08
43 | ECLFTGEDLDELEEELNTLDLEE [N2C] | 4.28
44 | ERLFTGEDLDELEEELNTLDLEE [N2R] | 4.94
45 | EKLFTGEDLDELEEELNTLDLEE [N2K] | 3.49
46 | EYLFTGEDLDELEEELNTLDLEE [N2Y] | 4.78
47 | ETLFTGEDLDELEEELNTLDLEE [N2T] | 4.23
48 | ESLFTGEDLDELEEELNTLDLEE [N2S] | 4.6

Row | Variant | protein stability index
49 | EQLFTGEDLDELEEELNTLDLEE [N2Q] | 4.71
50 | EHLFTGEDLDELEEELNTLDLEE [N2H] | 4
51 | EWLFTGEDLDELEEELNTLDLEE [N2W] | 3.12
52 | EPLFTGEDLDELEEELNTLDLEE [N2P] | 4.24
53 | EVLFTGEDLDELEEELNTLDLEE [N2V] | 4.17
54 | EILFTGEDLDELEEELNTLDLEE [N2I] | 3.61
55 | EELFTGEDLDELEEELNTLDLEE [N2E] | 4.39
56 | KNLFTGEDLDELEEELNTLDLEE [E1K] | 3.59
57 | FNLFTGEDLDELEEELNTLDLEE [E1F] | 3.23
58 | INLFTGEDLDELEEELNTLDLEE [E1I] | 3.24
59 | ANLFTGEDLDELEEELNTLDLEE [E1A] | 4.26
60 | NNLFTGEDLDELEEELNTLDLEE [E1N] | 4.12
61 | PNLFTGEDLDELEEELNTLDLEE [E1P] | 4.12
62 | WNLFTGEDLDELEEELNTLDLEE [E1W] | 2.89
63 | DNLFTGEDLDELEEELNTLDLEE [E1D] | 4.19
64 | TNLFTGEDLDELEEELNTLDLEE [E1T] | 4.11
65 | HNLFTGEDLDELEEELNTLDLEE [E1H] | 3.66
66 | CNLFTGEDLDELEEELNTLDLEE [E1C] | 3.8
67 | VNLFTGEDLDELEEELNTLDLEE [E1V] | 4.25
68 | SNLFTGEDLDELEEELNTLDLEE [E1S] | 4.42
69 | MNLFTGEDLDELEEELNTLDLEE [E1M] | 3.76
70 | LNLFTGEDLDELEEELNTLDLEE [E1L] | 4.16
71 | QNLFTGEDLDELEEELNTLDLEE [E1Q] | 4.14
72 | YNLFTGEDLDELEEELNTLDLEE [E1Y] | 3.58

Row | Variant | protein stability index
73 | ENLFFGEDLDELEEELNTLDLEE [T5F] | 4.19
74 | ENLFHGEDLDELEEELNTLDLEE [T5H] | 4.56
75 | ENLFGGEDLDELEEELNTLDLEE [T5G] | 4.5
76 | ENLFNGEDLDELEEELNTLDLEE [T5N] | 4.41
77 | ENLFMGEDLDELEEELNTLDLEE [T5M] | 4.69
78 | ENLFEGEDLDELEEELNTLDLEE [T5E] | 4.65
79 | ENLFVGEDLDELEEELNTLDLEE [T5V] | 3.27
80 | ENLFWGEDLDELEEELNTLDLEE [T5W] | 4.51
81 | ENLFPGEDLDELEEELNTLDLEE [T5P] | 4.66
82 | ENLFIGEDLDELEEELNTLDLEE [T5I] | 4.05
83 | ENLFYGEDLDELEEELNTLDLEE [T5Y] | 4.25
84 | ENLFCGEDLDELEEELNTLDLEE [T5C] | 5.08
85 | ENLFSGEDLDELEEELNTLDLEE [T5S] | 4.32
86 | ENLFTGNDLDELEEELNTLDLEE [E7N] | 4.68
87 | ENLFTGLDLDELEEELNTLDLEE [E7L] | 3.98
88 | ENLFTGFDLDELEEELNTLDLEE [E7F] | 4.42
89 | ENLFTGHDLDELEEELNTLDLEE [E7H] | 4.66
90 | ENLFTGPDLDELEEELNTLDLEE [E7P] | 4.16
91 | ENLFTGCDLDELEEELNTLDLEE [E7C] | 4.38
92 | ENLFTGDDLDELEEELNTLDLEE [E7D] | 4.93
93 | ENLFTGKDLDELEEELNTLDLEE [E7K] | 4.01
94 | ENLFTGIDLDELEEELNTLDLEE [E7I] | 4.49
95 | ENLFTGMDLDELEEELNTLDLEE [E7M] | 4.69
96 | ENLFTGADLDELEEELNTLDLEE [E7A] | 4.55
